T1: FPR1 (UniProt P21462 1-350, limits assumed)
T1 sequence (looked up): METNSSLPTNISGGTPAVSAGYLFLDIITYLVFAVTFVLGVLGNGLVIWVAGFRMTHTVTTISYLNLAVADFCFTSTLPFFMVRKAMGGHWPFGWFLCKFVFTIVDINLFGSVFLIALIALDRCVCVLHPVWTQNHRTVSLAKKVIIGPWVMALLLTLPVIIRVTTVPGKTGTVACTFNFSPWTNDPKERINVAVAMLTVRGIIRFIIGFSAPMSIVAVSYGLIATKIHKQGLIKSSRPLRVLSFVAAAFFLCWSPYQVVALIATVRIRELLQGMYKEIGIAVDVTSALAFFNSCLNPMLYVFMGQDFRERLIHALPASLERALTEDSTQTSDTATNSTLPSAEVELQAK

T2: formyl peptide receptor 2 (FPR2) (UniProt P25090 1-351, limits assumed)
T2 sequence (looked up): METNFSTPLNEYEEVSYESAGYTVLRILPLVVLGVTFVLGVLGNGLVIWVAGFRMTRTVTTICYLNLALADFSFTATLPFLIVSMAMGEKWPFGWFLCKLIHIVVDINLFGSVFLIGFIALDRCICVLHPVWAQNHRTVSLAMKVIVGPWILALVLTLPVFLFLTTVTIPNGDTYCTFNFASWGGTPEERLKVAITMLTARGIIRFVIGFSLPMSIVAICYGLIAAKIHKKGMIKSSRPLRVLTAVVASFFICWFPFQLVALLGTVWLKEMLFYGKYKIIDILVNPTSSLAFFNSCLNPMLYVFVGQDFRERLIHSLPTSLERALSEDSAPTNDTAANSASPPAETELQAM

B1: peptide of SEQ ID NO 36 (peptide)
peptide: KWKYKYM
HELM: PEPTIDE1{[ac].K.W.K.Y.K.Y.[dM].[am]}$$$$V2.0
SMILES: CSCC[C@@H](NC(=O)[C@H](Cc1ccc(O)cc1)NC(=O)[C@H](CCCCN)NC(=O)[C@H](Cc1ccc(O)cc1)NC(=O)[C@H](CCCCN)NC(=O)[C@H](Cc1c[nH]c2ccccc12)NC(=O)[C@H](CCCCN)NC(C)=O)C(N)=O
B2: peptide of SEQ ID NO 26 (peptide)
peptide: PMKYKVM
HELM: PEPTIDE1{[ac].P.M.K.Y.K.V.[dM].[am]}$$$$V2.0
SMILES: CSCC[C@H](NC(=O)[C@@H]1CCCN1C(C)=O)C(=O)N[C@@H](CCCCN)C(=O)N[C@@H](Cc1ccc(O)cc1)C(=O)N[C@@H](CCCCN)C(=O)N[C@H](C(=O)N[C@H](CCSC)C(N)=O)C(C)C
B3: peptide of SEQ ID NO 41 (peptide)
peptide: MRYKYM
HELM: PEPTIDE1{M.R.Y.K.Y.[dM].[am]}$$$$V2.0; N-terminus assumed
SMILES: CSCC[C@H](N)C(=O)N[C@@H](CCCNC(=N)N)C(=O)N[C@@H](Cc1ccc(O)cc1)C(=O)N[C@@H](CCCCN)C(=O)N[C@@H](Cc1ccc(O)cc1)C(=O)N[C@H](CCSC)C(N)=O
B4: peptide of SEQ ID NO 30 (peptide)
peptide: RMRYRVM
HELM: PEPTIDE1{R.M.R.Y.R.V.[dM].[am]}$$$$V2.0; N-terminus assumed
SMILES: CSCC[C@H](NC(=O)[C@@H](N)CCCNC(=N)N)C(=O)N[C@@H](CCCNC(=N)N)C(=O)N[C@@H](Cc1ccc(O)cc1)C(=O)N[C@@H](CCCNC(=N)N)C(=O)N[C@H](C(=O)N[C@H](CCSC)C(N)=O)C(C)C
B5: peptide of SEQ ID NO 37 (peptide)
peptide: HWKYKYM
HELM: PEPTIDE1{[CCCC(=O)[*:2]].H.W.K.Y.K.Y.[dM].[am]}$$$$V2.0
SMILES: CCCC(=O)N[C@@H](Cc1c[nH]cn1)C(=O)N[C@@H](Cc1c[nH]c2ccccc12)C(=O)N[C@@H](CCCCN)C(=O)N[C@@H](Cc1ccc(O)cc1)C(=O)N[C@@H](CCCCN)C(=O)N[C@@H](Cc1ccc(O)cc1)C(=O)N[C@H](CCSC)C(N)=O
B6: peptide of SEQ ID NO 24 (peptide)
peptide: HMKYKVM
HELM: PEPTIDE1{[CCCCCCCC(=O)[*:2]].H.M.K.Y.K.V.[dM].[am]}$$$$V2.0
SMILES: CCCCCCCC(=O)N[C@@H](Cc1c[nH]cn1)C(=O)N[C@@H](CCSC)C(=O)N[C@@H](CCCCN)C(=O)N[C@@H](Cc1ccc(O)cc1)C(=O)N[C@@H](CCCCN)C(=O)N[C@H](C(=O)N[C@H](CCSC)C(N)=O)C(C)C
B7: peptide of SEQ ID NO 35 (peptide)
peptide: WRYKYM
HELM: PEPTIDE1{W.R.Y.K.Y.[dM].[am]}$$$$V2.0; N-terminus assumed
SMILES: CSCC[C@@H](NC(=O)[C@H](Cc1ccc(O)cc1)NC(=O)[C@H](CCCCN)NC(=O)[C@H](Cc1ccc(O)cc1)NC(=O)[C@H](CCCNC(=N)N)NC(=O)[C@@H](N)Cc1c[nH]c2ccccc12)C(N)=O
B8: peptide of SEQ ID NO 25 (peptide)
peptide: PMKYKVM
HELM: PEPTIDE1{P.M.K.Y.K.V.[dM].[am]}$$$$V2.0; N-terminus assumed
SMILES: CSCC[C@H](NC(=O)[C@@H]1CCCN1)C(=O)N[C@@H](CCCCN)C(=O)N[C@@H](Cc1ccc(O)cc1)C(=O)N[C@@H](CCCCN)C(=O)N[C@H](C(=O)N[C@H](CCSC)C(N)=O)C(C)C
B9: peptide of SEQ ID NO 22 (peptide)
peptide: HMKYKVM
HELM: PEPTIDE1{[ac].H.M.K.Y.K.V.[dM].[am]}$$$$V2.0
SMILES: CSCC[C@H](NC(=O)[C@H](Cc1c[nH]cn1)NC(C)=O)C(=O)N[C@@H](CCCCN)C(=O)N[C@@H](Cc1ccc(O)cc1)C(=O)N[C@@H](CCCCN)C(=O)N[C@H](C(=O)N[C@H](CCSC)C(N)=O)C(C)C
B10: peptide of SEQ ID NO 38 (peptide)
peptide: RMRYKYM
HELM: PEPTIDE1{R.M.R.Y.K.Y.[dM].[am]}$$$$V2.0; N-terminus assumed
SMILES: CSCC[C@H](NC(=O)[C@@H](N)CCCNC(=N)N)C(=O)N[C@@H](CCCNC(=N)N)C(=O)N[C@@H](Cc1ccc(O)cc1)C(=O)N[C@@H](CCCCN)C(=O)N[C@@H](Cc1ccc(O)cc1)C(=O)N[C@H](CCSC)C(N)=O
B11: peptide of SEQ ID NO 27 (peptide)
peptide: PMKYKVM
HELM: PEPTIDE1{[CCCC(=O)[*:2]].P.M.K.Y.K.V.[dM].[am]}$$$$V2.0
SMILES: CCCC(=O)N1CCC[C@H]1C(=O)N[C@@H](CCSC)C(=O)N[C@@H](CCCCN)C(=O)N[C@@H](Cc1ccc(O)cc1)C(=O)N[C@@H](CCCCN)C(=O)N[C@H](C(=O)N[C@H](CCSC)C(N)=O)C(C)C
B12: peptide of SEQ ID NO 3 (peptide)
peptide: WRYKVM
HELM: PEPTIDE1{W.R.Y.K.V.[dM].[am]}$$$$V2.0; N-terminus assumed
SMILES: CSCC[C@@H](NC(=O)[C@@H](NC(=O)[C@H](CCCCN)NC(=O)[C@H](Cc1ccc(O)cc1)NC(=O)[C@H](CCCNC(=N)N)NC(=O)[C@@H](N)Cc1c[nH]c2ccccc12)C(C)C)C(N)=O
B13: peptide of SEQ ID NO 28 (peptide)
peptide: PMKYKVM
HELM: PEPTIDE1{[CCCCCCCC(=O)[*:2]].P.M.K.Y.K.V.[dM].[am]}$$$$V2.0
SMILES: CCCCCCCC(=O)N1CCC[C@H]1C(=O)N[C@@H](CCSC)C(=O)N[C@@H](CCCCN)C(=O)N[C@@H](Cc1ccc(O)cc1)C(=O)N[C@@H](CCCCN)C(=O)N[C@H](C(=O)N[C@H](CCSC)C(N)=O)C(C)C
B14: peptide of SEQ ID NO 33 (peptide)
peptide: RWRYKYM
HELM: PEPTIDE1{[ac].R.W.R.Y.K.Y.[dM].[am]}$$$$V2.0
SMILES: CSCC[C@@H](NC(=O)[C@H](Cc1ccc(O)cc1)NC(=O)[C@H](CCCCN)NC(=O)[C@H](Cc1ccc(O)cc1)NC(=O)[C@H](CCCNC(=N)N)NC(=O)[C@H](Cc1c[nH]c2ccccc12)NC(=O)[C@H](CCCNC(=N)N)NC(C)=O)C(N)=O
B15: peptide of SEQ ID NO 23 (peptide)
peptide: HMKYKVM
HELM: PEPTIDE1{[CCCC(=O)[*:2]].H.M.K.Y.K.V.[dM].[am]}$$$$V2.0
SMILES: CCCC(=O)N[C@@H](Cc1c[nH]cn1)C(=O)N[C@@H](CCSC)C(=O)N[C@@H](CCCCN)C(=O)N[C@@H](Cc1ccc(O)cc1)C(=O)N[C@@H](CCCCN)C(=O)N[C@H](C(=O)N[C@H](CCSC)C(N)=O)C(C)C
B16: peptide of SEQ ID NO 29 (peptide)
peptide: RWRYRVM
HELM: PEPTIDE1{R.W.R.Y.R.V.[dM].[am]}$$$$V2.0; N-terminus assumed
SMILES: CSCC[C@@H](NC(=O)[C@@H](NC(=O)[C@H](CCCNC(=N)N)NC(=O)[C@H](Cc1ccc(O)cc1)NC(=O)[C@H](CCCNC(=N)N)NC(=O)[C@H](Cc1c[nH]c2ccccc12)NC(=O)[C@@H](N)CCCNC(=N)N)C(C)C)C(N)=O

Columns and labels:
FPR1 = target: T1, FPR1; experiment: cell-based or functional assay
[1] = target: T2, formyl peptide receptor 2 (FPR2); experiment: cell-based or functional assay

Row | EC50 for [Ca2+] (FPR1) [µM] | EC50 for [Ca2+] [1] [µM] | Binder
1 | > 10 | < 0.01 | B1
2 | > 10 | < 0.01 | B2
3 | > 10 | < 0.01 | B3
4 | > 10 | < 0.01 | B4
5 | > 10 | < 0.01 | B5
6 | > 10 | < 0.01 | B6
7 | > 10 | < 0.01 | B7
8 | > 10 | < 0.01 | B8
9 | > 10 | < 0.01 | B9
10 | > 10 | < 0.01 | B10
11 | > 10 | < 0.01 | B11
12 | > 10 | < 0.01 | B12
13 | > 10 | < 0.01 | B13
14 | > 10 | < 0.01 | B14
15 | > 10 | < 0.01 | B15
16 | > 10 | < 0.01 | B16

— patent publication US20250361268A1, “NOVEL ANTI-INFLAMMATORY PEPTIDE AND USE THEREOF” (NOVACELL TECHNOLOGY INC., priority 2022, published 2025)
